{"source": "patent US7439017B2", "about": "“Assays for measuring nucleic acid binding proteins and enzyme activities” (BioVeris Corporation, priority 1998, dated 2008)", "system": "RuBpy-labeled Sheep anti-mouse IgG coated beads", "assay": "ECL-based assay for the measurement of protease activity", "format": "biochemical", "conditions": "in words, 30 minutes at 37° C., solution phase, FIG. 9", "method": "This assay system consists of a ruthenylated (RuBpy-labeled) substrate immobilized on paramagnetic beads and the enzyme of interest. The RuBpy label is released by the action of the enzyme. The ECL of the free label is measured using the ORIGEN Analyzer (IGEN International).\nDynabead® M280 Sheep anti-mouse IgG coated beads (IGEN International, Inc.) were RuBpy-labeled at a 200:1 challenge ratio of RuBpy to IgG to introduce RuBpy groups on the immobilized IgG molecules. The labeling was carried out using a derivative of RuBpy linked to an NHS ester (TAG-NHS, IGEN International) according to established procedures. The beads were then washed three times, thirty minutes each, at 4° C. with equal volumes of PBS, pH 7.8, and once overnight at 4° C. Replicate test samples were prepared with 100 μl of solutions containing known amounts of Proteinase K (Sigma) in phosphate buffered saline, pH 7.8 and 25 μl of 1.2 mg/ml TAG labeled Sheep anti-mouse beads. […] The reaction was quenched by the addition of 1 mL of a solution containing tripropylamine (ORIGEN Assay Buffer, IGEN International, Inc.) and the protease activity was quantitated on the ORIGEN 1.5 Analyzer with the solution phase default settings (i.e., the beads are kept in suspension so as to preferentially measure ECL at the electrode from RuBpy groups in solution) except for high vortex speed."}
{"molecule": "Proteinase K: Proteinase K (Sigma), protease measured in the ECL assay (protein, UniProt P06873 106-384, looked up) Proteinase K: AAQTNAPWGLARISSTSPGTSTYYYDESAGQGSCVYVIDTGIEASHPEFEGRAQMVKTYYYSSRDGNGHGTHCAGTVGSRTYGVAKKTQLFGVKVLDDNGSGQYSTIIAGMDFVASDKNNRNCPKGVVASLSLGGGYSSSVNSAAARLQSSGVMVAVAAGNNNADARNYSPASEPSVCTVGASDRYDRRSSFSNYGSVLDIFGPGTSILSTWIGGSTRSISGTSMATPHVAGLAAYLMTLGKTTAASACRYIADTANKGDLSNIPFGTVNLLAYNNYQA", "values": [{"measurement": "ECL signal as a function of the concentration of enzyme", "value": "directly related to the concentration of enzyme"}]}
